Results taken from patent publication US12714676B2, “Compositions and methods for targeted delivery of therapeutics using carriers” (VESSELON, INC., priority 2020, dated 2026).

Legend:
[1] = in the human body; cited from earlier work
[2] = HT29 xenograft, bevacizumab-awwb concentration in excised tumors (HPLC); assay type: in vivo, athymic nude mice; details: Day 3
Procedure: A non-GLP study was conducted (Metis Labs, Ronkonkoma, NY, USA) using Imagent microbubbles, a human monoclonal antibody and ultrasound with a TE7 and P4-2S probe (Mindray North America, New Jersey, USA); settings used were 2.2 MHz frequency, 0.35 and 0.70 mechanical indexes (MI) during insonation, once every 10 seconds, a microbubble destruct pulse of 1.3 MI lasting 1,100 milliseconds was applied. Total insonation time of 5 minutes per animal was used. Imagent was conjugated with bevacizumab-awwb (Mvasi®, Amgen, Thousand Oaks, CA, USA) (“eBev”) in HT29 human colorectal carcinoma model.
Thirty-six athymic nude mice (The Jackson Laboratory, Bar Harbor, ME, USA) were randomized into 9 groups of 4 mice and once tumor volumes reached ~200 mm^3, the mice were treated once on day 1. Animals were euthanized on Day 3. The bevacizumab-awwb (either eBev or free bevacizumab-awwb) dose was 100 μL of either a 25:1, 50:1, or 5:1 dilution, depending on the experimental arm, via intravenous administration (i.v.) via jugular vein catheter (Instech One Channel Mouse Button, Instech, Plymouth Meeting, PA, USA). […]

[3] = patients, package insert; cited from earlier work
[4] = cited from earlier work

## O=C1[O][Pt]2([NH][C@@H]3CCCC[C@H]3[NH]2)[O]C1=O [Oxaliplatin]
[1]
  half-life: about 14 minutes

## bevacizumab-awwb: bevacizumab-awwb (Mvasi, Amgen), human monoclonal antibody
[2]; Group 2: free bevacizumab-awwb only, 25:1 dilution, i.v.
  mean concentration of bevacizumab-awwb as measured in the tumors: around 3 μg
[2]; Groups 3a-3d: free bevacizumab-awwb 25:1 co-administered with Imagent microbubbles + ultrasound
  mean concentration of bevacizumab-awwb as measured in the tumors: around 3 μg

## Avastin: recombinant humanized monoclonal IgG1 antibody, vascular endothelial growth factor inhibitor
[3]
  Grade 3-5 hemorrhagic events: 0.4-7.0%
  Grades 3-4 hypertension: 5-18%
  Grades 3-5 Arterial Thromboembolic Events: 5%
  gastrointestinal perforations: 0.3-3.0%
  ovarian failure: 34%
  proteinuria: 20%

## FC(F)(F)C(F)(F)C(F)(F)C(F)(F)C(F)(F)C(F)(F)F [Perfluorohexane]
[4]
  water solubility, times lower than octafluoropropane: 704 times
  water solubility, times lower than sulfur hexafluoride: 1,000 times
